Assay results as given in IntAct's records for PubMed 18997771.

B1: Vascular endothelial growth factor receptor 2 (Mus musculus), P35918 (parent)
chain: MESKALLAVALWFCVETRAASVGLPGDFLHPPKLSTQKDILTILANTTLQITCRGQRDLDWLWPNAQRDSEERVLVTECGGGDSIFCKTLTIPRVVGNDTGAYKCSYRDVDIASTVYVYVRDYRSPFIASVSDQHGIVYITENKNKTVVIPCRGSISNLNVSLCARYPEKRFVPDGNRISWDSEIGFTLPSYMISYAGMVFCEAKINDETYQSIMYIVVVVGYRIYDVILSPPHEIELSAGEKLVLNCTARTELNVGLDFTWHSPPSKSHHKKIVNRDVKPFPGTVAKMFLSTLTIESVTKSDQGEYTCVASSGRMIKRNRTFVRVHTKPFIAFGSGMKSLVEATVGSQVRIPVKYLSYPAPDIKWYRNGRPIESNYTMIVGDELTIMEVTERDAGNYTVILTNPISMEKQSHMVSLVVNVPPQIGEKALISPMDSYQYGTMQTLTCTVYANPPLHHIQWYWQLEEACSYRPGQTSPYACKEWRHVEDFQGGNKIEVTKNQYALIEGKNKTVSTLVIQAANVSALYKCEAINKAGRGERVISFHVIRGPEITVQPAAQPTEQESVSLLCTADRNTFENLTWYKLGSQATSVHMGESLTPVCKNLDALWKLNGTMFSNSTNDILIVAFQNASLQDQGDYVCSAQDKKTKKRHCLVKQLIILERMAPMITGNLENQTTTIGETIEVTCPASGNPTPHITWFKDNETLVEDSGIVLRDGNRNLTIRRVRKEDGGLYTCQACNVLGCARAETLFIIEGAQEKTNLEVIILVGTAVIAMFFWLLLVIVLRTVKRANEGELKTGYLSIVMDPDELPLDERCERLPYDASKWEFPRDRLKLGKPLGRGAFGQVIEADAFGIDKTATCKTVAVKMLKEGATHSEHRALMSELKILIHIGHHLNVVNLLGACTKPGGPLMVIVEFCKFGNLSTYLRGKRNEFVPYKSKGARFRQGKDYVGELSVDLKRRLDSITSSQSSASSGFVEEKSLSDVEEEEASEELYKDFLTLEHLICYSFQVAKGMEFLASRKCIHRDLAARNILLSEKNVVKICDFGLARDIYKDPDYVRKGDARLPLKWMAPETIFDRVYTIQSDVWSFGVLLWEIFSLGASPYPGVKIDEEFCRRLKEGTRMRAPDYTTPEMYQTMLDCWHEDPNQRPSFSELVEHLGNLLQANAQQDGKDYIVLPMSETLSMEEDSGLSLPTSPVSCMEEEEVCDPKFHYDNTAGISHYLQNSKRKSRPVSVKTFEDIPLEEPEVKVIPDDSQTDSGMVLASEELKTLEDRNKLSPSFGGMMPSKSRESVASEGSNQTSGYQSGYHSDDTDTTVYSSDEAGLLKMVDAAVHADSGTTLRSPPV

Variants of: B1
Details: with pgfrb_human PDGFRB

Row | effect of a mutation on the interaction | Variant
1 | disrupting interaction | Y1052F;Y1057F
